This is an account of results in US20070287163A1 (CRUCELL HOLLAND B V, published 2007).

The target in the assay is T1, CD46 (human (HEp-2 cells), UniProt P15529).
T1 construct: endogenous, cell-surface biotinylated, solubilised in Triton X-100 lysate; The bands in the CR2300 lane were not separately identified
T1 sequence (antigen, looked up): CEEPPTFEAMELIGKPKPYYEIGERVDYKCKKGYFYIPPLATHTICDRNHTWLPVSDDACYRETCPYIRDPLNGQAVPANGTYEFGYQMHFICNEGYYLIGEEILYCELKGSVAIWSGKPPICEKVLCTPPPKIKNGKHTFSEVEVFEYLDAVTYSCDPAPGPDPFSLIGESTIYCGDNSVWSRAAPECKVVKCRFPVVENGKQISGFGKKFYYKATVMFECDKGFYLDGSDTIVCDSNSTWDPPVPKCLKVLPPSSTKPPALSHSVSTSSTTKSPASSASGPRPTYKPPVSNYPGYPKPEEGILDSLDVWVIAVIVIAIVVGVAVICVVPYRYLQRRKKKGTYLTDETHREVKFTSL
The assay is described as follows: immunoprecipitation from surface-biotinylated HEp-2 lysate, streptavidin-HRP blot. As for the experimental part:
To identify whether CR2407 reacted with a membrane extractable antigen, the cell surface of 10⁸ HEp-2 cells were biotinylated during 1 hour at room temperature with a final concentration of 2 mg sulfo-NHS-LC-LC-biotin in physiological buffer (0.2 M phosphate buffer containing 0.12 M NaCl, pH 7.4). Subsequently, the remaining free biotin was blocked during an incubation of 30 minutes at room temperature with 10 mM glycine in physiological buffer. After labeling, the cells were washed with cold physiological buffer and solubilized for 30 minutes on ice at a concentration of 3×10⁷ cells/ml in TX-100 lysis buffer (1% Triton X-100, 150 mM NaCl, 50 mM Tris pH 7.4, protease inhibitors (Roche)). The unsoluble material was removed by centrifugation for 30 minutes at 4° C. at 20,000*g.
Hereafter, the biotinylated solubilized lysates were pre-cleared with protein-A beads for 2 hours at 4° C. 4 μg of CR2407 and the negative control antibody CR2428 and positive control antibody CR2300 (directed against CD46) were coupled to protein A beads at room temperature. Next, the pre-cleared samples were incubated with the above IgG's coupled to protein-A beads for 2 hours at 4° C. […] After blotting on PVDF membranes, the biotinylated proteins were detected with streptavidin-HRP (Amersham) and enhanced chemoluminescence (Amersham).

B1: CR2407 IgG1 (antibody, V domains shown)
VH: EVQLVESGGGLVQPGGSLRLSCAASGFTFSSYAMSWVRQAPGKGLEWVSAISGSGGSTYYADSVKGRFTISRDNSKDTLYLQMSSLKTEDTAVYYCARGSLLQFWGQGTLVTVSS
VL: SSELTQDPAVSVALGQTVRITCQGDSLRSYYASWYQQKPGQAPVLVIYGKNNRPSGIPDRFSGSSSGNTASLTITGAQAEDEADYYCNSRDSSGNHVVFGGGTKLTVLG
notes: also called anti-ALCAM IgG1
Turning to B1, the binding result is listed as “no binding (tested: 4 ug IgG on protein-A beads)”.
